The values below come from the supplement of paper PMC9112550, “Optimization of the antimicrobial peptide Bac7 by deep mutational scanning” (BMC Biology, 2022).

The data set has as its system Escherichia coli TOP10. Kind of data set: shrunken log2 fold change of peptide-encoding DNA abundance (4.5 h post-induction vs induction); higher = less antimicrobial activity (less host growth inhibition). The note with it: time post-induction: 4.5 h; library: site-saturation at positions 5, 18, 19, 20.
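Also: peptides expressed intracellularly from a pBAD plasmid library in pooled LB shake-flask culture, induced with 0.3% L-arabinose, DNA abundance read by NGS, three biological replicates, DESeq2 with apeglm shrinkage.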

Consider RRIRERPPRLPRPRPRPDQQPRP, for which the “shrunken log2 fold change” value was -0.278.
As for RRIRFRPPRLPRPRPRPSVRPRP, the “shrunken log2 fold change” value was -0.302.
In the case of RRIRTRPPRLPRPRPRPFHVPRP it was -0.0683.
In the case of RRIRHRPPRLPRPRPRPDHTPRP it was -0.307; in that of RRIRHRPPRLPRPRPRPYKMPRP, -0.226.
With RRIRSRPPRLPRPRPRPGDLPRP, the “shrunken log2 fold change” value is -0.091.
For RRIRSRPPRLPRPRPRPFASPRP the value was 0.0202; for RRIRERPPRLPRPRPRPFFEPRP, -0.0766.
As for RRIRERPPRLPRPRPRPKNNPRP, the “shrunken log2 fold change” value is -0.464.
For RRIRGRPPRLPRPRPRPFLIPRP the value was -0.0796; for RRIRCRPPRLPRPRPRPNECPRP, -0.37.
In the case of RRIRARPPRLPRPRPRPTNTPRP it was 0.0887; in that of RRIRPRPPRLPRPRPRPNCPPRP, -0.0126.
In the case of RRIRARPPRLPRPRPRPQGVPRP, the “shrunken log2 fold change” value is -0.128.
Consider RRIRERPPRLPRPRPRPVWLPRP, for which the “shrunken log2 fold change” value was -0.0259.
In the case of RRIRFRPPRLPRPRPRPGTWPRP it was -0.153; in that of RRIRPRPPRLPRPRPRPFIQPRP, -0.671.
In the case of RRIRWRPPRLPRPRPRPCQEPRP it was -0.15; in that of RRIRSRPPRLPRPRPRPIQRPRP, 0.0978.
In the case of RRIRKRPPRLPRPRPRPDKCPRP it was -0.142; in that of RRIRWRPPRLPRPRPRPEQGPRP, -0.00277; in that of RRIRSRPPRLPRPRPRPLGVPRP, 0.0588.
Turning to RRIRQRPPRLPRPRPRPMVFPRP, the “shrunken log2 fold change” value is 0.111.
Turning to RRIRQRPPRLPRPRPRPWGQPRP, the “shrunken log2 fold change” value was 0.000222.
Consider RRIRPRPPRLPRPRPRPIGMPRP, for which the “shrunken log2 fold change” value is -0.232.
Take RRIRWRPPRLPRPRPRPWQHPRP: the “shrunken log2 fold change” value was -0.0883.
Take RRIRWRPPRLPRPRPRPGTGPRP: the “shrunken log2 fold change” value came out at 0.188.
With RRIRVRPPRLPRPRPRPQWKPRP, the “shrunken log2 fold change” value is -0.207.
For the sequence RRIRQRPPRLPRPRPRPNGHPRP, the “shrunken log2 fold change” value was -0.104.
In the case of RRIRCRPPRLPRPRPRPPNEPRP it was 0.309; in that of RRIRHRPPRLPRPRPRPQNRPRP, -0.0146; in that of RRIRARPPRLPRPRPRPYQQPRP, -0.316.
As for RRIRNRPPRLPRPRPRPAMLPRP, the “shrunken log2 fold change” value is -0.145.
In the case of RRIRHRPPRLPRPRPRPYAFPRP, the “shrunken log2 fold change” value turned out to be 0.0613.
For RRIRRRPPRLPRPRPRPEYRPRP the value was -0.0195; for RRIRHRPPRLPRPRPRPERLPRP, 0.0977.
Consider RRIRFRPPRLPRPRPRPPNSPRP, for which the “shrunken log2 fold change” value was -0.544.
For RRIRIRPPRLPRPRPRPFLRPRP the value was -0.2; for RRIRWRPPRLPRPRPRPQHDPRP, 0.202; for RRIRPRPPRLPRPRPRPYNVPRP, -0.0809.
For RRIRCRPPRLPRPRPRPHGNPRP the value was -0.233.
With RRIRLRPPRLPRPRPRPFYGPRP, the “shrunken log2 fold change” value is -0.157.
Turning to RRIRMRPPRLPRPRPRPFRGPRP, the “shrunken log2 fold change” value was -0.205.
Consider RRIRWRPPRLPRPRPRPNLAPRP, for which the “shrunken log2 fold change” value was 0.0306.
On to RRIRGRPPRLPRPRPRPQPKPRP, for which the “shrunken log2 fold change” value worked out at 0.884.
Turning to RRIRERPPRLPRPRPRPPRNPRP, the “shrunken log2 fold change” value worked out at 0.0296.
In the case of RRIRKRPPRLPRPRPRPHRVPRP it was 0.34; in that of RRIRWRPPRLPRPRPRPKHRPRP, 0.149; in that of RRIRLRPPRLPRPRPRPFNMPRP, -0.189.
RRIRARPPRLPRPRPRPVQLPRP: the “shrunken log2 fold change” value worked out at 0.101.
For RRIRMRPPRLPRPRPRPAPTPRP the value was 1.13; for RRIRCRPPRLPRPRPRPVMMPRP, -0.214.
In the case of RRIRCRPPRLPRPRPRPWMPPRP it was -0.178.
Take RRIRNRPPRLPRPRPRPLPPPRP: the “shrunken log2 fold change” value was 0.5.
For RRIRGRPPRLPRPRPRPLPGPRP the value was 1.01; for RRIRYRPPRLPRPRPRPKSHPRP, 0.49; for RRIRWRPPRLPRPRPRPLLEPRP, 0.216.
Turning to RRIRCRPPRLPRPRPRPIELPRP, the “shrunken log2 fold change” value is -0.0768.
With RRIRDRPPRLPRPRPRPCDIPRP, the “shrunken log2 fold change” value was -0.11.
Take RRIRERPPRLPRPRPRPGAHPRP: the “shrunken log2 fold change” value worked out at 0.0368.
Regarding RRIRARPPRLPRPRPRPLRDPRP, the “shrunken log2 fold change” value was 0.948.
In the case of RRIRTRPPRLPRPRPRPRSKPRP it was -0.101; in that of RRIRMRPPRLPRPRPRPRVMPRP, 0.832.
As to RRIRWRPPRLPRPRPRPECPPRP, the “shrunken log2 fold change” value was found to be 0.341.
In the case of RRIRIRPPRLPRPRPRPATYPRP it was 0.00351; in that of RRIRWRPPRLPRPRPRPGKKPRP, 0.375.
As for RRIRGRPPRLPRPRPRPWYCPRP, the “shrunken log2 fold change” value was -0.408.
In the case of RRIRARPPRLPRPRPRPQLRPRP it was 0.157; in that of RRIRWRPPRLPRPRPRPAWKPRP, 0.143.
For the sequence RRIRERPPRLPRPRPRPEHVPRP, the “shrunken log2 fold change” value was -0.017.
As for RRIRPRPPRLPRPRPRPTPCPRP, the “shrunken log2 fold change” value came to 0.365.
In the case of RRIRKRPPRLPRPRPRPNSAPRP it was 0.393; in that of RRIRSRPPRLPRPRPRPFTFPRP, -0.189.
Turning to RRIRPRPPRLPRPRPRPHYMPRP, the “shrunken log2 fold change” value is -0.747.
Consider RRIRPRPPRLPRPRPRPVEWPRP, for which the “shrunken log2 fold change” value was found to be 0.0458.
For the sequence RRIRNRPPRLPRPRPRPAAIPRP, the “shrunken log2 fold change” value came out at 1.95.
For RRIRQRPPRLPRPRPRPADCPRP the value was -0.00699.
As to RRIRNRPPRLPRPRPRPANAPRP, the “shrunken log2 fold change” value came out at 0.259.
For RRIRERPPRLPRPRPRPTGRPRP the value was -0.146.
In the case of RRIRLRPPRLPRPRPRPVYTPRP it was -0.0286; in that of RRIRWRPPRLPRPRPRPRPVPRP, 0.728; in that of RRIRQRPPRLPRPRPRPHPTPRP, -0.13.
For RRIRGRPPRLPRPRPRPQFAPRP the value was 0.273.
On to RRIRQRPPRLPRPRPRPNIWPRP, for which the “shrunken log2 fold change” value was -0.0842.
Take RRIRHRPPRLPRPRPRPKVAPRP: the “shrunken log2 fold change” value was -0.049.
Take RRIRQRPPRLPRPRPRPKNPPRP: the “shrunken log2 fold change” value is -0.26.
As for RRIRERPPRLPRPRPRPQPQPRP, the “shrunken log2 fold change” value is -0.0713.
For RRIRRRPPRLPRPRPRPVKHPRP the value was 0.25.
For the sequence RRIRERPPRLPRPRPRPCPMPRP, the “shrunken log2 fold change” value is -0.511.
For RRIRSRPPRLPRPRPRPCSFPRP the value was -0.825; for RRIRQRPPRLPRPRPRPQIQPRP, -0.411.
In the case of RRIRHRPPRLPRPRPRPCTVPRP it was -0.0523; in that of RRIRYRPPRLPRPRPRPRKQPRP, -0.129; in that of RRIRQRPPRLPRPRPRPEENPRP, 0.00965.
For the sequence RRIRWRPPRLPRPRPRPVGCPRP, the “shrunken log2 fold change” value came to 0.575.
With RRIRQRPPRLPRPRPRPGGQPRP, the “shrunken log2 fold change” value is -0.137.
As for RRIRNRPPRLPRPRPRPRGSPRP, the “shrunken log2 fold change” value came out at 0.299.
Consider RRIRYRPPRLPRPRPRPIVYPRP, for which the “shrunken log2 fold change” value was -1.23.
Turning to RRIRQRPPRLPRPRPRPLSMPRP, the “shrunken log2 fold change” value was -0.262.
For RRIRTRPPRLPRPRPRPTLVPRP the value was 0.0196.
In the case of RRIRNRPPRLPRPRPRPGEMPRP it was 0.336.
For RRIRDRPPRLPRPRPRPYQKPRP the value was 0.0212; for RRIRARPPRLPRPRPRPDLPPRP, 0.311; for RRIRFRPPRLPRPRPRPAYHPRP, -0.00712.
On to RRIRWRPPRLPRPRPRPFDKPRP, for which the “shrunken log2 fold change” value was -0.012.
For RRIRNRPPRLPRPRPRPICKPRP the value was 0.0454.
As to RRIRNRPPRLPRPRPRPKRTPRP, the “shrunken log2 fold change” value was -0.0256.
In the case of RRIRCRPPRLPRPRPRPSSWPRP it was -0.251; in that of RRIRHRPPRLPRPRPRPFWFPRP, -0.382; in that of RRIRFRPPRLPRPRPRPFECPRP, -0.0767.
In the case of RRIRFRPPRLPRPRPRPTYGPRP it was -0.252; in that of RRIRVRPPRLPRPRPRPFMDPRP, -0.36.
In the case of RRIRGRPPRLPRPRPRPFARPRP it was 0.484.
As for RRIRQRPPRLPRPRPRPPFGPRP, the “shrunken log2 fold change” value is 0.219.
As for RRIRARPPRLPRPRPRPGRNPRP, the “shrunken log2 fold change” value stood at 0.419.
As to RRIRKRPPRLPRPRPRPDHHPRP, the “shrunken log2 fold change” value was -0.37.
Turning to RRIRGRPPRLPRPRPRPSPKPRP, the “shrunken log2 fold change” value was 0.619.
In the case of RRIRHRPPRLPRPRPRPECPPRP it was -0.0835; in that of RRIRKRPPRLPRPRPRPKMPPRP, 0.0535; in that of RRIRMRPPRLPRPRPRPHYYPRP, -0.061.
In the case of RRIRERPPRLPRPRPRPDSTPRP it was -0.0931; in that of RRIRERPPRLPRPRPRPRVNPRP, -0.157.
For RRIRTRPPRLPRPRPRPTYDPRP the value was -0.311; for RRIRQRPPRLPRPRPRPGLRPRP, 0.285; for RRIRCRPPRLPRPRPRPDLRPRP, -0.035.
